Target: VEGF165 (soluble) (human, UniProt P15692-4 27-191)
Assay: F-EMSA; 1 mM Mg2+; 10 mM HEPES pH 7.9, 125 mM NaCl, 25 mM KCl, 1 mM MgCl2; F-EMSA at room temperature for 2 h, 5% PAGE at 4 C; flow cytometry in the same buffer
Settings: protein: recombinant, chain copies: 2, label: 5' fluorescein (F-EMSA), 5' biotin (flow)

Sequence of VEGF165 (soluble) (P15692 other isoform, or with tags, fused parts or gaps): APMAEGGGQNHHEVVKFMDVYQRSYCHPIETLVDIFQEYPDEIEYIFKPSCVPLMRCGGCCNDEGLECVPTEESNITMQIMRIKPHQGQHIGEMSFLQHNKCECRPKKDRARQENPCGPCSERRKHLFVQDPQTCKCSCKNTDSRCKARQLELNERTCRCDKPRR

B1: hVap1_T1979 (structured_DNA)
DNA: TCTAGCCCACTGCATAGAGGTAGCCACGTATGTGGGTGTTACCCATTCGTAGCTACCGGTG
B1 gave a Kd (predicted stem-loops) of 1.7 ± 0.1 nM.

B2: hVap1_Stem (structured_DNA)
DNA: TCTAGCCCACTGCATAGAGGTAGCCACGTATGTTCGTGGCTACCGGTG
In the case of B2, the Kd (two predicted stem-loops) is reported as 5.6 ± 0.3 nM.

B3: hVap1_SST (structured_DNA)
DNA: TCTAGCCCACTGCATAGAGGTAGCTACCGGTG
B3 gave a Kd (stem-loop plus shortened second stem-loop) of 2.5 ± 0.2 nM.
